Source: the Human Domainome abundance scans (Beltran et al. 2025)
± gives the uncertainty stated by the source.

B1: RAS guanyl-releasing protein 1, residues 539 to 593; numbered along this chain, O95267 (parent)
chain: GFPHNFQETTYLKPTFCDNCAGFLWGVIKQGYRCKDCGMNCHKQCKDLVVFECKK

Variants of: B1
Assay: abundance fitness (aPCA) (normalised: wild type 0, dead -1); higher = more abundant; growth selection in yeast, the domain comes from the species named
Conditions: Homo sapiens

| Variant | abundance fitness |
| --- | --- |
| GFPHNFQETTYLKPTFCDNCAGFLWGVIKQGYRCKDCGMNCHEQCKDLVVFECKK | -0.002 ± 0.068 |
| GFPHNFQETTYLKPTFCDNCAGFLWGVIKQGYRCKDCGMNCHIQCKDLVVFECKK | 0.232 ± 0.1 |
| GFPHNFQETTYLKPTFCDNCAGFLWGVIKQGYRCKDCGMLCHKQCKDLVVFECKK | -0.349 ± 0.045 |
| GFPHNFQETTYLKPTFCDNCAGFLWGVIKQGYRCKDCGMICHKQCKDLVVFECKK | -0.093 ± 0.049 |
| GFPHNFQETTYLKPTFCDNCAGFLWGVIKQGYRCKDCGMRCHKQCKDLVVFECKK | -0.142 ± 0.059 |
| GFPHNFQETTYLKPTFCDNCAGFLWGVIKQGYRCKDCGMQCHKQCKDLVVFECKK | -0.02 ± 0.072 |
| GFPHNFQETTYLKPTFCDNCAGFLWGVIKQGYRCKDCGMNCHKQCKQLVVFECKK | 0.083 ± 0.12 |
| GFPHNFQETTYLKPTFCDNCAGFLWGVIKQGYRCKDCGMNCHKQCKPLVVFECKK | -0.054 ± 0.11 |
| GFPHNFQETTYLKPTFCDNCAGFLDGVIKQGYRCKDCGMNCHKQCKDLVVFECKK | -0.121 ± 0.15 |
| GFPHNFQETTYLKPTFCENCAGFLWGVIKQGYRCKDCGMNCHKQCKDLVVFECKK | -0.087 ± 0.074 |
| GFPHNFQETTYLKPTFCSNCAGFLWGVIKQGYRCKDCGMNCHKQCKDLVVFECKK | 0.028 ± 0.084 |
| GFPHNFQETTYLKPTFCANCAGFLWGVIKQGYRCKDCGMNCHKQCKDLVVFECKK | -0.016 ± 0.088 |
| GFPHNFQETTYLKPTFCKNCAGFLWGVIKQGYRCKDCGMNCHKQCKDLVVFECKK | -0.017 ± 0.12 |
| GFPHNFQETTYLKPRFCDNCAGFLWGVIKQGYRCKDCGMNCHKQCKDLVVFECKK | -0.29 ± 0.076 |
| GFPHNFQETTYLKPPFCDNCAGFLWGVIKQGYRCKDCGMNCHKQCKDLVVFECKK | -0.476 ± 0.071 |
| GFPHNFQETTYLKPTFCDNCAGFLWGVIKQGYQCKDCGMNCHKQCKDLVVFECKK | -0.262 ± 0.1 |
| GFPHNFQETTYLKPTFCDNCAGFLWGVIKQGYRCKDCGMNCHKQCKDGVVFECKK | 0.074 ± 0.061 |
| GFPHNFQETTYLKPTFCDNCAQFLWGVIKQGYRCKDCGMNCHKQCKDLVVFECKK | -0.146 ± 0.11 |
| GFPHNFQETTYLKPTFCDNCADFLWGVIKQGYRCKDCGMNCHKQCKDLVVFECKK | -0.189 ± 0.079 |
| GFPHNFQETTYLKPTHCDNCAGFLWGVIKQGYRCKDCGMNCHKQCKDLVVFECKK | -0.148 ± 0.12 |
| GFPHNFQETTYLKPTTCDNCAGFLWGVIKQGYRCKDCGMNCHKQCKDLVVFECKK | -0.33 ± 0.11 |
| GFPHNFQETTYLKPTPCDNCAGFLWGVIKQGYRCKDCGMNCHKQCKDLVVFECKK | -0.334 ± 0.11 |
| GFPHNFQETTYLKPTYCDNCAGFLWGVIKQGYRCKDCGMNCHKQCKDLVVFECKK | 0.024 ± 0.12 |
| GFPHNCQETTYLKPTFCDNCAGFLWGVIKQGYRCKDCGMNCHKQCKDLVVFECKK | -0.132 ± 0.12 |

| Variant | abundance fitness |
| --- | --- |
| GFPHNMQETTYLKPTFCDNCAGFLWGVIKQGYRCKDCGMNCHKQCKDLVVFECKK | -0.01 ± 0.14 |
| GFPHNWQETTYLKPTFCDNCAGFLWGVIKQGYRCKDCGMNCHKQCKDLVVFECKK | -0.667 ± 0.22 |
| GFPHNIQETTYLKPTFCDNCAGFLWGVIKQGYRCKDCGMNCHKQCKDLVVFECKK | -0.269 ± 0.25 |
| GFPHNEQETTYLKPTFCDNCAGFLWGVIKQGYRCKDCGMNCHKQCKDLVVFECKK | -0.551 ± 0.2 |
| GFPHNFQETTVLKPTFCDNCAGFLWGVIKQGYRCKDCGMNCHKQCKDLVVFECKK | -0.25 ± 0.079 |
| GFPHNFQETTNLKPTFCDNCAGFLWGVIKQGYRCKDCGMNCHKQCKDLVVFECKK | -0.225 ± 0.073 |
| GFPHNFQETTYLKPTFCDNCAGLLWGVIKQGYRCKDCGMNCHKQCKDLVVFECKK | 0.105 ± 0.086 |
| GFPHNFQETTYLKPTFCDNCAGWLWGVIKQGYRCKDCGMNCHKQCKDLVVFECKK | 0.014 ± 0.09 |
| GFPHNFQETTYLKPTFCDNCAGQLWGVIKQGYRCKDCGMNCHKQCKDLVVFECKK | -0.204 ± 0.12 |
| GFPHNFQETTYLKPTFCDNCAGSLWGVIKQGYRCKDCGMNCHKQCKDLVVFECKK | -0.431 ± 0.072 |
| GFPHNFQETTYLCPTFCDNCAGFLWGVIKQGYRCKDCGMNCHKQCKDLVVFECKK | -0.153 ± 0.062 |
| GFPHNFQETTYLDPTFCDNCAGFLWGVIKQGYRCKDCGMNCHKQCKDLVVFECKK | -0.603 ± 0.26 |
| GFPHNFQETTYLLPTFCDNCAGFLWGVIKQGYRCKDCGMNCHKQCKDLVVFECKK | -0.028 ± 0.067 |
| GFPHNFQETTYLKPTFCDNCAGFFWGVIKQGYRCKDCGMNCHKQCKDLVVFECKK | -0.006 ± 0.064 |
| GFPHNFQETTYLKPTFCDDCAGFLWGVIKQGYRCKDCGMNCHKQCKDLVVFECKK | -0.101 ± 0.11 |
| GFPHNFQETTYLKPTFCDNCAGFLWGVIKQGYRCKDCGMNCHKQCKDLVVFTCKK | -0.037 ± 0.086 |
| GFPHNFQETTYLKPTFCDNCAGFLWGVIKQGYRCKDCGMNCHKQCKDLVVFGCKK | -0.031 ± 0.045 |
| GFPHNFQETTYLKPTFCDNCAGFLWGVIKQGYRCKDCGMNCHKQCKDLVVFECWK | -0.378 ± 0.13 |
| GFPHNFQFTTYLKPTFCDNCAGFLWGVIKQGYRCKDCGMNCHKQCKDLVVFECKK | -0.096 ± 0.13 |
| GFPHNFQDTTYLKPTFCDNCAGFLWGVIKQGYRCKDCGMNCHKQCKDLVVFECKK | -0.452 ± 0.16 |
| GFPHNFQYTTYLKPTFCDNCAGFLWGVIKQGYRCKDCGMNCHKQCKDLVVFECKK | -0.105 ± 0.16 |
| GFPHNFQVTTYLKPTFCDNCAGFLWGVIKQGYRCKDCGMNCHKQCKDLVVFECKK | 0.039 ± 0.078 |
| GFPHNFQETTYLKPTFCDNCAGFLWGVIKQGYRCKDLGMNCHKQCKDLVVFECKK | -0.953 ± 0.1 |
| GFPHNFQETTYLKPTFCDNCAGFLWGVIKQGYRCKDEGMNCHKQCKDLVVFECKK | -0.967 ± 0.41 |
